Assay results as given in the DeepSol protein solubility set.

Assay: soluble on expression in E. coli; label from the status in PepcDB or PDB records

| Sequence | soluble on expression in E. coli |
| --- | --- |
| MSLQFDARNMALLESLVVANVYLAPEKLQEELGISKRTLQYDVEKINKELDNIGLDGIQSVRGQGYYLLEDEKSTIKEILGNREASHKVFSASERRIRILFFLLVTDARVIIDTINECNEVSRNTSLQDIKQLKLALKQFNLELAYDRKNGNMVLGDERSIRQFFIHYCMNNEEIATADQLLDLMKINPMIKNQELFPKLDTIFEILAVTEKKIGIRYTDEVLERIGIMIFFFKERMKRNCYLNEQEEHEVESFEIAQEIYQQLQQSENFKINHAEITYLGKLLLGASRLNDDAAAEGKLDLIVEKIIAEFERLACVNFEDHRNLKKDLLLHLQPAYYRLKFQIEWINPLRTDIKQSYSDVYEITKKSLEPLEDLLGETIPEDEIAYVTILFGGYLSRKNNEGHHHHHH | soluble |
| SLVASGYPLSQTFGHGDIHFLPPELADARTSKIKVPFQSLLCDGEDEFRKGARYVLREGVDFIKIFVTGGVASQKDKPEFPQMTRGEIAAVVEEARRAGRLVHAHAESSEGYINAVEEGVKTLAHGMDLNQDAINLSVEKDVTLIPTLSIVDVALKFGPSNNLPEWMLEKLKEVHEIHAESIKRAYRERVRLATGTDFFIGAKEVQLYGLNSLEIKLLVGLGVKPMDALKAVIKEGEIVKQS | not soluble |
| MASSLHSPGQAFRAALAKENPLQIVGAINANHALLAQRAGYQAIYLSGGGVAAGSLGLPDLGISTLDDVLTDIRRITDVCPLPLLVDADIGFGSSAFNVARTVKSIAKAGAAALHIEDQVGAKRCGHRPNKAIVSKEEMVDRIRAAVDARTDPNFVIMARTDALAVEGLEAALDRAQAYVDAGADMLFPEAITELSMYRRFADVAQVPILANITEFGATPLFTTDELRSAHVAMALYPLSAFRAMNRAAEKVYTVLRQEGTQKNVIDIMQTRNELYESINYYQFEEKLDALYRNKKSLEHHHHHH | soluble |
| MSSNECFKCGRSGHWARECPTGGGRGRGMRSRGRGFQFVSSSLPDICYRCGESGHLAKDCDLQEDACYNCGRGGHIAKDCKEPKREREQCCYNCGKPGHLARDCDHADEQKCYSCGEFGHIQKDCTKVKCYRCGETGHVAINCSKTSEVNCYRCGESGHLARECTIEATA | not soluble |
| AETVESCLAKSHTENSFTNVWKDDKTLDRYANYEGCLWNATGVVVCTGDETQCYGTWVPIGLAIPENEGGGSEGGGSEGGGSEGGGDDIFGELSSGKNAPKTGGGAKGNNASPAGSGNTKNNGASGADINNYAGQIKSAIESKFYDASSYAGKTCTLRIKLAPDGMLLDIKPEGGDPALCQAALAAAKLAKIPKPPSQAVYEVFKNAPLDFKPAAAHHHHHH | soluble |
| MSTRKAVIGYYFIPTNQINNYTETDTSVVPFPVSNITPAKAKQLTHINFSFLDINSNLECAWDPATNDAKARDVVNRLTALKAHNPSLRIMFSIGGWYYSNDLGVSHANYVNAVKTPASRAKFAQSCVRIMKDYGFDGVDINWEYPQAAEVDGFIAALQEIRTLLNQQTITDGRQALPYQLTIAGAGGAFFLSRYYSKLAQIVAPLDYINLMTYDLAGPWEKVTNHQAALFGDAAGPTFYNALREANLGWSWEELTRAFPSPFSLTVDAAVQQHLMMEGVPSAKIVMGVPFYGRAFKGVSGGNGGQYSSHSTPGEDPYPSTDYWLVGCEECVRDKDPRIASYRQLEQMLQGNYGYQRLWNDKTKTPYLYHAQNGLFVTYDDAESFKYKAKYIKQQQLGGVMFWHLGQDNRNGDLLAALDRYFNAADYDDSQLDMGTGLRYTGVGPGNLPIMTAPAYVPGTTYAQGALVSYQGYVWQTKWGYITSAPGSDSAWLKVGRVA | soluble |
| MAHHHHHHMSDHEMYDNIDAGASQTYPVQAGAIKKNGHVMLKEHPCKVVDYSTSKTGKHGHAKAHIVGIDIFTGRKYEDICPTSHNMDVPVVKRTELQLIDITEDGFVSLLYDNGDTKDDLSLPKDTEGNLDEVAKQIRNLFDNGKSVLVSVLSACGQEKIIAAKELSS | soluble |
| GPSSPAGGEARVHVLVLSSWRSGSSFVGQLFNQHPDVFYLMEPAWHVWTTLSQGSAATLHMAVRDLVRSVFLCDMDVFDAYLPWRRNLSDLFQWAVSRALCSPPACSAFPRGAISSEAVCKPLCARQSFTLAREACRSYSHVVLKEVRFFNLQVLYPLLSDPALNLRIVHLVRDPRAVLRSREQTAKALARDNGIVLGTNGTWVEADPGLRVVREVCRSHVRIAEAATLKPPPFLRGRYRLVRFEDLAREPLAEIRALYAFTGLSLTPQLEAWIHNITHGSGPGARREAFKTSSRNALNVSQAWRHALPFAKIRRVQELCAGALQLLGYRPVYSEDEQRNLALDLVLPRGLNGFTWASSTASHPRN | soluble |
| MSLKTHTLPLLLSCTLFLIGACTSMPPEIRNFSAVDIPYQPVSQNAETYKDAPVRWGGTVIEVENETDFSLMQVLFHPLDRSGYPETRKPGEGRFAVEINEFLDPAIYTKGVEVTVIGTVKGNIERTIGNKTIHIPLITAKTIHLWPQAYREDNLYRYGPYPGYYGYGYPFFYNGYYRPYRFWWEGHHHHHH | not soluble |
| MGSDKIHHHHHHMSNTGSLSYLRILDFTGEIGPYAAKLYAGLGADVIHIEPIAGDTLRSTGPFFGNRPGKERSMQFIYYNAGKRGLVLDLKKEKGKEVFVDLCKGADILFESFTPGYLDELGLSFDVLSAANPKLVQTSITPFGSFGPYSTYPGSDLTCSALGGFLYLAGIDNDKPVRACDNQAYRMAEVYAAVGSSIALLFAQKTGVGQFVDVSCMEAVGMALETAAQCWDLEGTLRRGRGKEAGSATIHPCKDGFIAIVAIVGRNKTMWTPFVQWMKEEGVEEWELFDNDNWINASYRESKAGYELFCRIFERFTMKHTKQYLYDAGQAHRVAVSPVSNGKDLLENPQLNHHDFWQRLYHEPVGAEVVCPGAPYEFGHLKWRLGDFAPTFGQHTAEVLGECGYSRSEIDALDREGVVHVAKS | not soluble |
| MFQLLAVCPMGLEAVVAREIQELGYETNVENGRIFFEGDASAIVKANLWLRTADRIKIVVGRFNATTFDELFEQTKALPWESIIDKEGNFPVQGRSVKSTLHSVPDCQAITKKAIVERLRRAYNEKGWLNESGAKYPVEVAILKDNVLLTIDTSGSGLNRRGYRLAQGEAPIKETLAASLIRLANWKGDTPLIDPFCGSGTIAIEACLIAQNIAPGFNREFVSEQWNIMPANIYDDYRDEADKMADYDKEIEVYASDIDPEMVEIAKRNAEEVGLSDIIKFSVKDVNTLTIDTEEPVALIGNPPYGERIGDREEVEEMYRYIGKLMKQHPFLSTYILTSNKEFEYLVNRKATKRRKLFNGYIECTYYQYWGKKTERKTIEN | not soluble |
| MGSDKIHHHHHHMKIIILGAGQVGGTLAENLVGENNDITIVDSDKNKLRSLQDKYDLRVVVGHGAHPDVLREAGAEDADMLIAVTNSDECNMSACQIAYTLFGTPTKIARIRSEQYLHMQERLFIDSETKNSDNRTRGGFVIDELIAPEQLVTSYIQRLVEYPGALQVLEFAEGKLSLVAVRAYYGGPLVGNALAALREHMPNIDTRVAAIFRQGRPIMPRGTTIIEADDEVFFVADSRHIRAVMSEMQKLDNSYRNIMIAGGGNIGLGLAKKLERNHSVKLIEHKAERAEALSEKLQNTTVFCGDASDQELLLEEHIDQTDVFIAVTNDDEANIMSALLAKRMGAKKVMVLIQREAYVDIVQEANIDIAISPQQATISALLTHIRQGDICNVYSLRRGAAEAIEAIAHGDPSTSKVVGKQIGEIRLPPGTTIGAIVRNDEVLMAHDKTVIEQGDHVILFLVNKKFIGEVERLFQPSAFFF | not soluble |
| MHKTHSTMSGKSMKVIGVLALQGAFLEHTNHLKRCLAENDYGIKIEIKTVKTPEDLAQCDALIIPGGESTSMSLIAQRTGLYPCLYEFVHNPEKVVWGTCAGLIFLSAQLENESALVKTLGVLKVDVRRNAFGRQAQSFTQKCDFSNFIPGCDNFPATFIRAPVIERILDPIAVKSLYELPVNGKDVVVAATQNHNILVTSFHPELADSDTRFHDWFIRQFVSN | soluble |
| MARNPEEAQRVVIPLGSEEALAFLGQADRNLKRLRSLFRTYLGDEVRLVSRGEQVEVLGPPEAVEKAERALRDLLALLRQGAELDEATLEQAVRLAAEGEGLYQATEPELELQLPGRLRPKTPGQKRYVEAIARHDITFGIGPAGTGKTYLAVAMAVSHLRARRVKRIILTRPAVEAGEKLGFLPGDIQAKVDPYLRPLYDALFDMIDAERFEQYLQSGIIEVAPLAFMRGRTLNDAFIILDEAQNTTPEQMKMFLTRMGFSSKMVITGDVTQIDLPKHQRSGLVEAIRILKGIEGIAFVHFKESDVVRHPLVARIIKAYEEAERGGGGAQ | soluble |
